Laboratory results as given in patent US20250026792A1, “SELF-ASSEMBLING PEPTIDES WITH HYALURONIC ACID BINDING DOMAINS AND METHODS OF USE THEREOF” (Northwestern University, priority 2022, published 2025).
Entries after “also recorded” stand apart in the source; their conditions may differ. Where a SMILES comes first, the peptide text is derived from it. The star is where a group is joined. Biotin = O=C1N[C@H]2[C@H](CS[C@H]2CCCCC(=O)*)N1

How the values were obtained:
[1] = test system: extracellular matrix (ECM) components: Collagen type I, II, III and IV, elastin, hyaluronic acid and Geltrex; experiment: ECM specificity binding test, whole panel; conditions: 5.0 mg/ml peptide, FIG. 4
Experimental: Peptides were incubated 24 hours at 37° C. on collagens I-IV, elastin, hyaluronic acid, and Geltrex. Coatings (10 pig/cm^2) were previously dried overnight in milli-Q water. Overall significance was assessed using analysis of variance, with Tukey's multiple comparison post-hoc analysis between ECM groups where n=4.
Hyaluronic acid, collagens I, II, III, and IV, elastin, and Geltrex were coated onto 96-well black plates (medium binding affinity) at 10 μg/cm^2 and were dried in milli-Q water at room temperature. N-termini biotinylated peptides were added to coated plates at 0, 1, 2.5, 5 and 10 mg/ml overnight at 37° C. in phosphate buffered saline (PBS), pH 7.4, after which the plates were washed three times with PBS. Fluorescent streptavidin-488 (4 μg/mL) was added to each well and incubated at 37° C. temperature for 24 hours, then thoroughly washed with PBS. The plates were read with a fluorescence microplate reader for fluorescence intensity (Ex 490 nm, Em 525 nm). All data were normalized to the background fluorescence intensity of Streptavidin-488.

[2] = Transmission electron microscopy (TEM) of peptide nanostructures; type: physicochemical; conditions: for TEM characterization, Phosphate Buffered Saline (i): PBS pH 7.4, 0.5% w/v; for TEM characterization, Phosphate Buffered Saline (i) / TEM characterization, Sodium Cacodylate Buffer (ii): 30 minutes sonication, 24 hrs at 37° C.; for TEM characterization, Sodium Cacodylate Buffer (ii): 20 mM sodium cacodylate pH 7.4, 0.5% w/v
Experimental: The sample and stain were filter-dried in between steps. Samples were collected 24 hours at 37° C. after 30 minutes of sonication. All TEM was performed on a Philips FEI Technai Spirit G2 electron microscope. Peptides were incubated in both PBS and SC.

[3] = Circular dichroism (CD) of peptides; type: physicochemical; conditions: 20 mM Sodium Cacodylate; for Ellipticity ratio (222 nm/208 nm) / Ellipticity 208 nm / Ellipticity 222 nm: 1.25 mg/mL; for Ellipticity 208 nm / Ellipticity 222 nm: CD data given as [θ]M×10^−3; for wavelength Minimum of CD profile: 5.0 mg/mL
Experimental: Data is presented in ellipticity ([θ]M×10^−3) as a function of spectral wavelength (λ).
Sodium cacodylate (SC), 20 mM pH 7.4, without and with 20% TFE was used to reduce phosphate related background signal and enhance detected structures. Circular dichroism (CD) data were collected in millidegrees, 0, and converted to molar ellipticity, [θ]M, and are expressed in units of deg×cm^2×dmol^−1. Scan speeds and digital integration times were 500 nm/min and 1 second, respectively. The data on the Y axis of the CD plots is [θ]M×10^−3. […] Consequently, CD signals are reported in the 190-260 nm range.

[4] = Concentration-dependent peptide binding to hyaluronic acid coating (biotin-streptavidin fluorescence); conditions: for binding to hyaluronic acid with increasing concentrations of peptide (fluorescence intensity): 0-10 mg/ml peptide, PBS pH 7.4, 37° C., HA coating 10 μg/cm^2, FIG. 3; for HA binding, overall assessment: summary and discussion statements
Experimental: Peptides were incubated 24 hours at 37° C. Coatings (10 μg/cm^2) were previously dried overnight in milli-Q water. Overall significance was assessed using analysis of variance, with Tukey's multiple comparison post-hoc analysis between 1-scrm and experimental groups where n=4.
N-termini biotinylated peptides were added to coated plates at 0, 1, 2.5, 5 and 10 mg/ml overnight at 37° C. in phosphate buffered saline (PBS), pH 7.4, after which the plates were washed three times with PBS.

Compound | binding to the ECMs (for 17x-3: the ECMs other than hyaluronic acid) [1] | TEM characterization, Phosphate Buffered Saline (i) [2] | nanofiber formation in TEM, overall ([2]; both PBS and sodium cacodylate) | Ellipticity ratio (222 nm/208 nm) [3] | Ellipticity 208 nm [3] | Ellipticity 222 nm [3] | wavelength Minimum of CD profile [3] | wavelength Minimum of CD profile ([3]; 20% TFE) | binding to hyaluronic acid with increasing concentrations of peptide (fluorescence intensity) [4] | binding to hyaluronic acid ([4]; 10 mg/ml peptide) | peptide concentrations at which increased binding to hyaluronic acid is shown ([4]; FIG. 3) [mg/mL] | HA binding, overall assessment [4] | TEM characterization, Sodium Cacodylate Buffer (ii) [2] | Ellipticity ratio (222 nm/208 nm) ([3]; 20% TFE) | Ellipticity 208 nm ([3]; 20% TFE) | Ellipticity 222 nm ([3]; 20% TFE)
TQLRNKYTFLARARNALAVRTKQNIKS [BHP3, designed from 42 residue peptide BH-P] | did not show significant binding | form fibers with many striations that form larger fibers and the larger fibers tend to form a mesh network | consistent nanofibers; also recorded: predominantly form fibers with striations and furthermore form a mesh network | 0.79 | −88.4 | −70.1 | 226 nm | 226 nm | increases dramatically | bound significantly | 10 | HA specific and robust binders | – | – | – | –
CC[C@H](C)[C@H](NC(=O)[C@H](CC(C)C)NC(=O)[C@H](CC(N)=O)NC(=O)[C@H](CC(C)C)NC(=O)[C@H](CCC(N)=O)NC(=O)[C@H](CC(C)C)NC(=O)[C@H](CCC(N)=O)NC(=O)[C@H](CC(C)C)NC(=O)[C@H](CCCCN)NC(=O)[C@H](CCCCN)NC(=O)[C@H](CCCCN)NC(=O)[C@H](CCCCN)NC(=O)[C@H](CCCCN)NC(=O)CCCC[C@@H]1SC[C@@H]2NC(=O)N[C@@H]21)C(=O)N[C@@H](CCCCN)C(=O)N[C@@H](CCCCN)C(=O)N[C@@H](CCCCN)C(=O)N[C@H](C(=O)N[C@@H](CCC(N)=O)C(=O)N[C@H](C(=O)N[C@@H](CO)C(=O)N[C@H](C(=O)N[C@H](C(=O)N[C@H](C(=O)N[C@H](C(=O)N[C@@H](CCCNC(=N)N)C(=O)N[C@@H](CCCNC(=N)N)C(=O)N[C@@H](Cc1c[nH]cn1)C(=O)O)C(C)C)C(C)C)C(C)C)C(C)C)C(C)C)C(C)C [Peptide 1-scrm, reference compound] (Biotin-KKKKKLQLQLNLIKKKVQVSVVVVRRH-OH) | – | – | – | – | – | – | – | – | – | – | – | – | No structure or fibrils | – | – | –
TKSKIKIVVKSKAKKLRLALVKRIKI [Peptide 6f-2, modification of mPEP35] | – | Structure, but no discernible striations | – | 0.52 | −97.6 | −50.6 | 221 nm | 221 nm | no different than the negative reference peptide | – | – | – | – | 0.84 | −306 | −257
TKTKIKIIVKLKSKAKLRIKLVKRHKS [Peptide 8h-2, modification of mPEP35] | – | No discernible structure. | – | 0.42 | −135 | −57.3 | 224 nm | 222-224 nm | – | – | – | proficient and specific binders | No discernible structure. | 0.88 | −283 | −249
LKLKSSHSIKLKVKSKQRSALVSRQKA [Peptide 6b, mPEP35 variant] | – | Structure with striations | – | – | – | – | 227 nm | 224 nm | – | – | – | – | – | 0.87 | −229 | −199
ASNLTKAAKSLKVRVIKKTKQKQVLKVL [2nd de novo, five B(X7)B domains] | – | Structure, but no discernible striations | – | 0.42 | −115 | −48.5 | 224-225 nm | 221-222 nm | – | – | – | – | – | 0.90 | −371 | −333
CC[C@H](C)[C@H](NC(=O)[C@H](CCCCN)NC(=O)[C@H](CCC(N)=O)NC(=O)[C@H](CCCCN)NC(=O)[C@H](CC(C)C)NC(=O)CCCC[C@@H]1SC[C@@H]2NC(=O)N[C@@H]21)C(=O)N[C@@H](CCCCN)C(=O)N[C@@H](Cc1c[nH]cn1)C(=O)N[C@H](C(=O)N[C@H](C(=O)N[C@@H](CCCCN)C(=O)N[C@@H](CC(C)C)C(=O)N[C@@H](CCCCN)C(=O)N[C@H](C(=O)N[C@H](C(=O)N[C@H](C(=O)N[C@@H](CCCCN)C(=O)N[C@@H](CC(C)C)C(=O)N[C@@H](CCCNC(=N)N)C(=O)N[C@@H](CO)C(=O)N[C@@H](CCC(N)=O)C(=O)N[C@@H](CC(C)C)C(=O)N[C@H](C(=O)N[C@@H](CCCCN)C(=O)N[C@@H](CCCNC(=N)N)C(=O)N[C@@H](CCCCN)C(=O)N[C@@H](CCC(N)=O)C(=O)N[C@@H](CC(N)=O)C(=O)O)C(C)C)C(C)C)C(C)C)C(C)C)C(C)C)C(C)C [mPEP35, reference compound] (Biotin-LKQKIKHVVKLKVVVKLRSQLVKRKQN-OH) | – | – | – | – | – | – | – | – | – | – | – | – | no fibers or structure can be observed; also recorded: No structure or fibrils | – | – | –
